Here are results for five molecules from PMC12360793 (2025).

Assay in all cases: BLI
A general note: Biolayer interferometry detects binding as a change in optical thickness at a sensor tip.

The target of assay [1] is T1, biotinylated monomeric MOW15–22 RBD (MOW15–22 (bat MERSr-CoV sampled in …)).
In assay [2] the target is T2, PnNL2018B S1-hFc (PnNL2018B (bat MERSr-CoV sampled in …)).
Assay [3] has as its target T2, PnNL2018B S1-hFc. This is another data set of the same source.
In assay [4] the target is T1, biotinylated monomeric MOW15–22 RBD. The source holds these as a separate data set.

Read-outs that look alike come from different tables or passages of the source.

B1: dimeric P.nat ACE2 ectodomain (residues 17–729, avi-His8) (domain or fragment)
chain: AQSLTTEEKAREFLDKFNSEAENWSHESALASWDYNTNINDKNAQKMNEADSKWSAFYKEHSKLAQGFPLQEIQNSTIKLQLQILQQNGSSVLTAEKSKRLSTILTTMSTIYSTGKVCNPNNPQQCFTLSGLEDIMEKSKDYHQRLWIWEGWRSEVGKQLRPLYEEYVALKNEMARGNNYKDYGDYWRGDYETEGGDGYNYSRNHLIEDVDRIFLEIKPLYEQLHAYVRAKLMNAYPSRISPTGCLPAHLLGDMWGRFWTNLYNLTVPFEKKQNIDVTDTMKKQSWDAEKIFKEAEKFYLSVGLHNMTPEFWNNSMLTEPSDGRQVVCHPTAWDLGKNDFRIKMCTKVTMDDFLTAHHEMGHIQYDMAYAKQPYLLRNGANEGFHEAVGEVMSLSVATPKHLKGMGLLPSNFSEDCETEINFLLKQALNIVGTLPFTYMLEKWRWMVFEGKIPKEQWMEKWWEMKREIVGVVEPLPHDETYCDPASLFHVANDYSFIRYFTRTILEFQFQEALCQIANHTGPLHKCDISNSTEAGKQLKNMLELGKSKPWTFALEQIARTKEMDAKPLLNYFKPLFSWLKEQNGNSVGWSADWSPYSEQSIKVRISLKSALGEKAYEWNDNEMYLFRSSVAYAMRVYFLKVKNETIPFRAEDVWVSDEKIRVSFKFFVTSPTNVSDIIPRSEVEDAIRMSRGRINDAFRLDDKTLEFLGIQPT
In assay [1], B1 displayed a koff of 0.000301 s⁻¹.

B2: soluble dimeric P.nat ACE2 ectodomain (residues 18–739, twin-strep-3×FLAG) (domain or fragment)
chain: QSLTTEEKAREFLDKFNSEAENWSHESALASWDYNTNINDKNAQKMNEADSKWSAFYKEHSKLAQGFPLQEIQNSTIKLQLQILQQNGSSVLTAEKSKRLSTILTTMSTIYSTGKVCNPNNPQQCFTLSGLEDIMEKSKDYHQRLWIWEGWRSEVGKQLRPLYEEYVALKNEMARGNNYKDYGDYWRGDYETEGGDGYNYSRNHLIEDVDRIFLEIKPLYEQLHAYVRAKLMNAYPSRISPTGCLPAHLLGDMWGRFWTNLYNLTVPFEKKQNIDVTDTMKKQSWDAEKIFKEAEKFYLSVGLHNMTPEFWNNSMLTEPSDGRQVVCHPTAWDLGKNDFRIKMCTKVTMDDFLTAHHEMGHIQYDMAYAKQPYLLRNGANEGFHEAVGEVMSLSVATPKHLKGMGLLPSNFSEDCETEINFLLKQALNIVGTLPFTYMLEKWRWMVFEGKIPKEQWMEKWWEMKREIVGVVEPLPHDETYCDPASLFHVANDYSFIRYFTRTILEFQFQEALCQIANHTGPLHKCDISNSTEAGKQLKNMLELGKSKPWTFALEQIARTKEMDAKPLLNYFKPLFSWLKEQNGNSVGWSADWSPYSEQSIKVRISLKSALGEKAYEWNDNEMYLFRSSVAYAMRVYFLKVKNETIPFRAEDVWVSDEKIRVSFKFFVTSPTNVSDIIPRSEVEDAIRMSRGRINDAFRLDDKTLEFLGIQPTLGPPYQPPVT
In the assay with PnNL2018B S1-hFc [2], B2 came in with a dissociation constant Kd of 183 nM and a dissociation rate constant (koff) of 0.00727 s⁻¹.

B3: soluble dimeric P.nat.M1 ACE2 ectodomain (twin-strep-3×FLAG) (domain or fragment)
chain: QSLTTEEKAREFLDKFNSEAENWSHESALASWDYNTNINDKNAQKMNEADSKWSAFYKEHSKLAQGFPLQEIQNSTIKLQLQILQQNGSSVLTAEKSKRLSTILTTMSTIYSTGKVCNPNNPQQCFTLSGLEDIMEKSKDYHQRLWIWEGWRSEVGKQLRPLYEEYVALKNEMARGNNYKDYGDYWRGDYETEGGDGYNYSRNHLIEDVDRIFLEIKPLYEQLHAYVRAKLMNAYPSRISPTGCLPAHLLGDMWGRFWTNLYNLTVPFEKKQNIDVTDTMKKQSWDAEKIFKEAEKFYLSVGLHNMTPEFWNNSMLTEPSDGRQVVCHPTAWDLGKNDFRIKMCTKVTMDDFLTAHHEMGHIQYDMAYAKQPYLLRNGANEGFHEAVGEIMSLSAATPKHLKDLGLLAQNYPEDYETEINFLLKQALNIVGTLPFTYMLEKWRWMVFEGKIPKEQWMEKWWEMKREIVGVVEPLPHDETYCDPASLFHVANDYSFIRYFTRTILEFQFQEALCQIANHTGPLHKCDISNSTEAGKQLKNMLELGKSKPWTFALEQIARTKEMDAKPLLNYFKPLFSWLKEQNGNSVGWSADWSPYSEQSIKVRISLKSALGEKAYEWNDNEMYLFRSSVAYAMRVYFLKVKNETIPFRAEDVWVSDEKIRVSFKFFVTSPTNVSDIIPRSEVEDAIRMSRGRINDAFRLDDKTLEFLGIQPTLGPPYQPPVT
In the assay with PnNL2018B S1-hFc [3], B3 gave a Kd of 16.9 nM and a koff of 0.00179 s⁻¹.

B4: monomeric P.dav ACE2 ectodomain (residues 17–613, avi-His8) (domain or fragment)
chain: AQSTTEELAKTFLEKFNHEAEELSYQSSLASWNYNTNITDENVQKMNEAGAKWSAFYEEQSKLAKTYPLAEIHNTTVKRQLQALQQSGSSVLSADKSQRLNTILNAMSTIYSTGKACNPNNPQECLLLEPGLDDIMENSKDYNERLWAWEGWRAEVGKQLRPLYEEYVALKNEMARANNYEDYGDYWRGDYEEEWTDGYNYSRSQLIKDVEHTFTQIKPLYQHLHAYVRAKLMDTYPSRISPTGCLPAHLLGDMWGRFWTNLYPLTVPFGQKPNIDVTDAMVNQSWDARRIFKEAEKFFVSVGLPNMTQGFWENSMLTEPGDSRKVVCHPTAWDLGKGDFRIKMCTKVTMDDFLTAHHEMGHIQYDMAYAVQPFLLRNGANEGFHEAVGEIMSLSAATPNHLKTIGLLSPGFSEDSETEINFLLKQALTIVGTLPFTYMLEKWRWMVFKGEIPKEQWMQKWWEMKREIVGVVEPVPHDETYCDPASLFHVANDYSFIRYYTRTIYQFQFQEALCRIAKHEGPLHKCDISNSSEAGKKLLQMLTLGKSKPWTLALEHVVGEKKMNVTPLLKYFEPLFTWLKEQNRNSFVGWNTDWRPY
The molecule B4 showed an off-rate constant (koff) in assay [4] of 0.0567 s⁻¹.

B5: dimeric P.dav ACE2 ectodomain (residues 17–728, avi-His8) (domain or fragment)
chain: AQSTTEELAKTFLEKFNHEAEELSYQSSLASWNYNTNITDENVQKMNEAGAKWSAFYEEQSKLAKTYPLAEIHNTTVKRQLQALQQSGSSVLSADKSQRLNTILNAMSTIYSTGKACNPNNPQECLLLEPGLDDIMENSKDYNERLWAWEGWRAEVGKQLRPLYEEYVALKNEMARANNYEDYGDYWRGDYEEEWTDGYNYSRSQLIKDVEHTFTQIKPLYQHLHAYVRAKLMDTYPSRISPTGCLPAHLLGDMWGRFWTNLYPLTVPFGQKPNIDVTDAMVNQSWDARRIFKEAEKFFVSVGLPNMTQGFWENSMLTEPGDSRKVVCHPTAWDLGKGDFRIKMCTKVTMDDFLTAHHEMGHIQYDMAYAVQPFLLRNGANEGFHEAVGEIMSLSAATPNHLKTIGLLSPGFSEDSETEINFLLKQALTIVGTLPFTYMLEKWRWMVFKGEIPKEQWMQKWWEMKREIVGVVEPVPHDETYCDPASLFHVANDYSFIRYYTRTIYQFQFQEALCRIAKHEGPLHKCDISNSSEAGKKLLQMLTLGKSKPWTLALEHVVGEKKMNVTPLLKYFEPLFTWLKEQNRNSFVGWNTDWRPYADQSIKVRISLKSALGDEAYEWNDNEMYLFRSSVAYAMREYFSKVKNQTIPFVEDNVWVSNLKPRISFNFFVTASKNVSDVIPRSEVEEAIRMSRSRINDAFRLDDNSLEFLGIQ
B5 gave a koff in assay [4] of 0.000712 s⁻¹.

One may read the koff as the rate constant with which the complex falls apart. Read a low koff as slow dissociation. One may read the Kd as a measure of binding affinity in units of concentration. A low value points to higher affinity.
